Measured values taken from US20160346411A1.
Values joined by “and” are separate entries in the source; they are usually repeats but may differ in a detail not shown here. Equal entries are not always repeated. Blank lines part the entries; values can stand above or below the molecule they belong to. Numbered stars: 1 amine (or outer) side, 2 acyl side, 3 side chain; on linkers, the order of the positions; unused ones are H or OH. Bridge positions count the residues as written; N and C are the ends. TRITC = tetramethylrhodamine dye; Cysteamine = C(CS[*:2])N[*:1]; Ahx = NCCCCCC(=O)O

Tests used:
clotted fibrin (human) [1] = experiment: T1-weighted MR at 1.5T: percent change of signal-intensity ratio, phantom 2 (clotted fibrin) against phantom 1 (fibrinogen), 10 µM probe; 1 pre-treated with PDI and DTT is converted to EP-2104R
Chain of clotted fibrin (human) (P50402 whole entry, the tested form may be a part): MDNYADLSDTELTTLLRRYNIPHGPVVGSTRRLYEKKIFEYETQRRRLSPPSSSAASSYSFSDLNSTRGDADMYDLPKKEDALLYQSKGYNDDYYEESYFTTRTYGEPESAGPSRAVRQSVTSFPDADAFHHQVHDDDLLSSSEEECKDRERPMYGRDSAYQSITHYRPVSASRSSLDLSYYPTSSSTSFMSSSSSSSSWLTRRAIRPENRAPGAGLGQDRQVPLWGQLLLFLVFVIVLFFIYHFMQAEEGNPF

clotted fibrin (human) [2] = experiment: T1-weighted MR at 1.5T: percent change of signal-intensity ratio, phantom 3 (pelleted fibrin) against phantom 1 (fibrinogen), 10 µM probe, region of the pellet; 1 pre-treated with PDI and DTT is converted to EP-2104R
[3] = target: DD(E), soluble protein fragment of fibrin (human) (UniProt P02671); experiment: competitive displacement of TRITC-Tn6 (0.1 µM) from DD(E) (2 µM), fluorescence anisotropy
clotted fibrin (human) [4] = experiment: T1-weighted MR at 1.5T: percent change of signal-intensity ratio, phantom 3 (pelleted fibrin) against phantom 1 (fibrinogen), 10 µM probe, region of the pellet
[5] = target: DD(E), soluble protein fragment of fibrin (human) (UniProt P02671); experiment: competitive displacement of TRITC-Tn6 (0.1 µM) from DD(E) (2 µM), fluorescence anisotropy, least-squares regression
clotted fibrin (human) [6] = experiment: T1-weighted MR at 1.5T: percent change of signal-intensity ratio, phantom 2 (clotted fibrin) against phantom 1 (fibrinogen), 10 µM probe
clotted fibrin (human) [7] = experiment: T1-weighted MR at 1.5T: percent change of signal-intensity ratio, phantom 3 (pelleted fibrin) against phantom 1 (fibrinogen), 10 µM probe, liquid above the pellet
clotted fibrin (human) [8] = experiment: T1-weighted MR at 1.5T: percent change of signal-intensity ratio, phantom 3 (pelleted fibrin) against phantom 1 (fibrinogen), 10 µM probe, liquid above the pellet; 1 pre-treated with PDI and DTT is converted to EP-2104R
TRITC-Tn6-MDS = system: T1, TRITC-Tn6-MDS
T1 sequence: QWECPYGLCWIQ

[9] = target: DD(E), soluble protein fragment of fibrin (human) (UniProt P02671); experiment: direct titration of the TRITC probe (0.1 µM) with DD(E) up to about 32 µM, fluorescence anisotropy plotted as % probe bound
[10] = target: DD(E), soluble protein fragment of fibrin (human) (UniProt P02671); experiment: fluorescence anisotropy, serial dilution of DD(E) mixed with the probe; reference is cyclic TRITC-Tn6

Molecule: EP-2104R (peptide)
%Δ SIR (clotted fibrin (human) [1]): 12%
%Δ SIR, lower region (clotted fibrin (human) [2]): 36%
IC50 (read off the curve) [3]: 2 µM
%Δ SIR, lower region (clotted fibrin (human) [4]): 49% and 69%
Kd [5]: 0.16 µM
%Δ SIR (clotted fibrin (human) [6]): 8% and 11%
%Δ SIR, upper region (clotted fibrin (human) [7]): -24% and -21%
%Δ SIR, upper region (clotted fibrin (human) [8]): -22%

Molecule: protein disulfide isomerase
conversion of the mixed-disulfide form to the cyclized form, followed by LC-MS (TRITC-Tn6-MDS): PDI alone does not promote cyclization of the probe, but PDI in the presence of a reducing agent like dithiothreitol (DTT) promotes rapid conversion of the probe to the desired product compared to DTT alone
real-time change in fluorescence anisotropy in the presence of 2 µM DD(E) (TRITC-Tn6-MDS): it is evident that only when both PDI and DTT are present simultaneously that the probe is efficiently activated
conversion of Compound 1 to EP-2104R, followed by 1/T1 in the presence of 12.0 µM DD(E) (Compound 1): The rate of conversion of 1 to EP-2104R was most rapid for the reaction performed under condition D in which both PDI and DTT were present simultaneously
conversion of Compound 1 to EP-2104R, seen as fall of the anisotropy of TRITC-Tn6 on DD(E) (Compound 1): with 1 mg/L PDI plus 10 µM DTT the anisotropy falls from about 0.25 to about 0.183 in about 1170 s, with DTT alone only to about 0.233; with PDI alone it stays at about 0.25 like untreated
conversion of Compound 1 to EP-2104R, seen as rise of 1/T1 with 12.0 µM DD(E) (Compound 1): with 3 mg/L PDI plus 10.0 µM DTT 1/T1 rises from about 0.69 to about 0.825 s-1 in about 3750 s, with DTT alone from about 0.65 to about 0.715 s-1; with PDI alone it stays at about 0.64 s-1 like untreated

Second part, the molecule after the results:

Kd [9]: 0.51 µM
Molecule: {TRITC-Ahx}-QWECPYGLCWIQ-NH2 (disulfide 4-9) [TRITC-Tn6 peptide (cyclic form)]

fold Kd relative to the cyclic form [10]: 20 fold
Kd [9]: 9.65 µM
Molecule: {TRITC-Ahx}-QWEC(Cysteamine)PYGLC(Cysteamine)WIQ-NH2 [TRITC-Tn6-MDS]
